In patent US20210388105A1 (ELPISCIENCE SUZHOU BIOPHARMA, published 2021):

T1: cynomolgus CD39 (full length, on CHOK1-cynoCD39 cells) (cynomolgus monkey, UniProt A0A7N9DGH8 1-510)
T1 construct: whole, on cells; also called cCD39
T1 sequence: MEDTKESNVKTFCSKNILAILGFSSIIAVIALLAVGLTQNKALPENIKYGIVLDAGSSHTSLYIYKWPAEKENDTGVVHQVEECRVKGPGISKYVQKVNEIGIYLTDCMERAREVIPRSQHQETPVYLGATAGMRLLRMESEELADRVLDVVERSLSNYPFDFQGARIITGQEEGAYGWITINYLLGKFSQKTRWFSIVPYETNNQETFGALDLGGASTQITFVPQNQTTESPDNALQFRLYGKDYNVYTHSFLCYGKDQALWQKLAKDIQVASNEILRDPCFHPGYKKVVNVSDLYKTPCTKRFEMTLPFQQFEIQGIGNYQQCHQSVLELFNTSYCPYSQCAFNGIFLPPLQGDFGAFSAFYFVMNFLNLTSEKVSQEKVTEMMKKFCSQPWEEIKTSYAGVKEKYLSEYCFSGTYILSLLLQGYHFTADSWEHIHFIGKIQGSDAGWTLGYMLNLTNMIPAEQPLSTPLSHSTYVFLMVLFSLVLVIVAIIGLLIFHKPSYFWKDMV

T2: KW27-19 (human CD39 mutant, C-terminal EGFP) (human, UniProt P49961 1-510)
T2 construct: expressed on HEK293F cells; not shown: C-terminal EGFP fusion (vector pCMV3-GFPSpark)
T2 chain: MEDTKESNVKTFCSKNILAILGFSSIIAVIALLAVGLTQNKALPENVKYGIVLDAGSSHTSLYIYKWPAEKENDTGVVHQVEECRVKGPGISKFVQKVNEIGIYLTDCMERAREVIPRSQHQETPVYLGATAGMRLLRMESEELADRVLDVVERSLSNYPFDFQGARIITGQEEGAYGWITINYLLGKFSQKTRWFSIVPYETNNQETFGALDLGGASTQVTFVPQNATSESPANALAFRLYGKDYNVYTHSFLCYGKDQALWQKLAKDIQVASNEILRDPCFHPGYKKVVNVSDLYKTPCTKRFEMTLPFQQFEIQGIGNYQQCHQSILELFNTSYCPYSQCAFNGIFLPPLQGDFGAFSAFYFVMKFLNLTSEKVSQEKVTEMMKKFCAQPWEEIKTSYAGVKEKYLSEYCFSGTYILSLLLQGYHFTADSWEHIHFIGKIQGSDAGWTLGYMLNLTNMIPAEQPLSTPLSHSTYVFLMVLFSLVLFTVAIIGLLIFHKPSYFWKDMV

T3: human CD39 (protein; form not stated) (human, UniProt P49961 38-478, limits assumed)
T3 construct: also called ENTPD1; ENTPDase 1
T3 sequence: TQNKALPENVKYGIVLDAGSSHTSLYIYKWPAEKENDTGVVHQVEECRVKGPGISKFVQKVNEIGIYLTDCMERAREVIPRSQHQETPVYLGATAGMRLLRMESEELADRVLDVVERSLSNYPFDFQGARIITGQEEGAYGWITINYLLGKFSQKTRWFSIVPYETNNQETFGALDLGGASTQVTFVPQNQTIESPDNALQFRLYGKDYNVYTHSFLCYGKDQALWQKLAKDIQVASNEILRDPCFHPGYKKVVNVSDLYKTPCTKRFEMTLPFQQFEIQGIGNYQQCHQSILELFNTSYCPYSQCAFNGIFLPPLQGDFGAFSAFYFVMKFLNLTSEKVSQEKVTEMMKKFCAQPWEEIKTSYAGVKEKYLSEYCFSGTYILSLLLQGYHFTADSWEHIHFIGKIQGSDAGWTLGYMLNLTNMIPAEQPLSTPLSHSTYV

B1: Antibody 9-8B (antibody, V domains shown)
VH: QIQLVQSGPELKKPGETVKISCKASGYTFTHYGMNWVKQAPGKGLKWMGWINTYTGELTYADDFKGRFAFSLETSASTAYLQINNLKNEDTATYFCARRAYYRYDYVMDYWGQGTSVTVSS
VL: DIVMTQSQKFMSTSVGDRVSVTCKASHNVGTNVAWYQQKPGQSPKALIYSASYRYSGVPGRFTGSGSGTDFTLTISNVQSEDLAEYFCHQYNNYPYTFGGGTKLEIK
B2: mAb14 (antibody, V domains shown)
VH: EVKLEESGGGLVQPGGSMKLSCVASGFTFSKYWMNWVRQSPEKGLEWVAEIRLKSNKYGTHYAESVKGRFTISRDDSKNNVYLQMNNLRPEDTGIYYCTTQLDLYWFFDVWGAGTTVTVSS
VL: DIVMTQSPAILSVTPGDRVSLSCRASQSISDYLHWYQQKSHESPRLLIKYASQSISGIPSRFSGSGSGSNFTLSINSVEPEDVGVYFCQNGHSLPLTFGAGTKLELR
notes: mouse hybridoma antibody
B3: hu23.H5L5 (antibody, V domains shown)
VH: QVQLVQSGAEVKKPGASVKVSCKASGYNLKDTFLHWVRQAPGQGLEWMGRIDPANGNIKYDPKFQGRVTITADTSANTAYMELISLRSEDTAVYYCANSPYYYGSGYRIFDVWGQGTTVTVSS
VL: QIVLTQSPATLSLSPGERATLSCSAFSSVNYMHWYQQKPGQAPRLLIYTTSNLASGIPTRFSGSGSGTSYTLTISSLEPEDFAVYYCQQRSTYPFTFGQGTKLEIK
notes: humanized c23
B4: Antibody T895 (antibody, V domains shown)
VH: EVQLQQSGPELVKPGASVKMSCKASGYTFTDYNMHWVKQSHGRTLEWIGYIVPLNGGSTFNQKFKGRATLTVNTSSRTAYMELRSLTSEDSAAYYCARGGTRFAYWGQGTLVTVSA
VL: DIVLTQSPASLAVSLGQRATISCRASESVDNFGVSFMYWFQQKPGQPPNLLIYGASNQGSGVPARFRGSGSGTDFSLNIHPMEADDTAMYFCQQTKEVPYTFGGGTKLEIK
notes: also called 31895
B5: c34 (antibody, V domains shown)
VH: EIQVQQSGPELVKPGASVKVSCKASGYSFTDYNMYWVKQSHGKSLEWIGFIDPYNGYTSYNQKFKGKATLTIDKSSSTAFMHLNSLTSEDSAVYYCAIYGYDDAYYFDYWGQGTTLTVSS
VL: QIVLTQSPAIMSASPGEKVTITCSATSSVSYMHWFRQKPGTSPKLWIYSTSNLASGVPARFSGSGSGTSYSLTISRMAAEDAATYYCQQRITYPFTFGSGTKLEIT
notes: its making is not described; also called chimeric antibody c34
B6: c35 (antibody, V domains shown)
VH: EVRLQQSGAELVKPGASVKLSCTASGFNIEDTYVHWMKQRPEQGLEWIGRIDPAIDNSKYDPKFQGKATITAVSSSNTAYLQLSSLTSEDTAVYYCALYDGYNVYAMDYWGQGTSVTVSS
VL: DIVMTQAAFSNPVTLGTSASISCRSSKNLLHSNGITYLYWYLQRPGQSPQLLIYRASTLASGVPNRFSGSESGTDFTLRISRVEAEDVGVYYCAQLLELPHTFGGGTKLEIK
notes: its making is not described; also called chimeric antibody c35

biological target: T1, cynomolgus CD39 (full length, on …); test: FACS, CHOK1-cynoCD39 cells
Text: FACS were used to determine binding of the antibodies to cell lines expressing CD39 naturally (SK-MEL-28) or recombinantly (CHOK1-hCD39, CHOK1-cynoCD39, and CHOK1-mCD39), or with cells lacking CD39 expression (CHOK1-blank) as a negative control.
CHOK1-hCD39, CHOK1-cCD39, CHOK1-mCD39 and CHOK1-blank cells were maintained in culture medium according to ATCC procedure. Cells were collected and re-suspended in blocking buffer at a density of 3×10⁶ cells/ml. Cells were transferred to 96 well FACS plates at 100 μl/well (3×10⁵ cells/well), the plates were centrifuged and washed twice with FACS buffer (PBS, 1% FBS, 0.05% Tween-20). 4-folds serial dilution of anti-CD39 antibodies were prepared in FACS buffer starting from 30 μg/ml. Reference antibody 9-8B and mouse/human control IgG were used as positive and negative controls, respectively. Cells were re-suspended in 100 μL/well diluted antibodies, and the plates were incubated at 4° C. for 60 min. […] The plates were washed with FACS buffer, and cells were re-suspended in 100 μL/well of PBS. Cells were then analyzed with FACSVerse™ and mean fluorescence intensity were determined. Full binding curves were generated on the CD39 expressing cells by testing a range of antibody concentrations. Apparent affinity was determined for each antibody using Prism software.

| Binder | EC50 |
| --- | --- |
| B1 | 1.6 nM |
| B2 | 3.4 nM |

Biological target: T2, KW27-19 (human CD39 mutant, C-terminal …)
Test: FACS, mutant-EGFP on HEK293F cells
Method in brief: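 Relative binding, the ratio of AlexaFluor647 to GFP signal, was read by flow cytometry with labelled anti-hIgG. Antibody ran as an 11-point, 3-fold series starting at 100 nM. Targets were CD39 mutant–GFP fusions expressed transiently in HEK293F cells for 3 days.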

| Binder | binding result |
| --- | --- |
| B3 | binds |
| B4 | binds |
| B1 | binds |
| B5 | binds |
| B6 | binds |

biological target: T3, human CD39 (protein; form not stated); test: Octet (BLI), antibody on sensor, CD39 in solution
Procedure: Briefly, the antibodies were coupled on sensors and then the sensors were dipped into CD39 gradients (start at 200 nM, with 2-fold dilution and totally 8 doses). Their binding responses were measured in real-time and results were fit globally.

| Binder | Kd | koff | kon |
| --- | --- | --- | --- |
| B3 | 0.687 nM | 9.36e-05 s⁻¹ | 136000 M⁻¹ s⁻¹ |
| B4 | 6.62 nM | 0.00444 s⁻¹ | 671000 M⁻¹ s⁻¹ |
| B1 | 20.2 nM | 0.00243 s⁻¹ | 120000 M⁻¹ s⁻¹ |
